Results published in publication PMC5997747.

B1: recombinant human NCAM2 FnIII1 domain (domain or fragment)
chain: SPYGVKIIELSQTTAKVSFNKPDSHGGVPIHHYQVDVKEVASEIWKIVRSHGVQTMVVLNNLEPNTTYEIRVAAVNGKGQGDYSKIEIFQTLPV
B2: recombinant human NCAM2 FnIII1-2 double domain (expressed in E. coli) (domain or fragment)
chain: SPYGVKIIELSQTTAKVSFNKPDSHGGVPIHHYQVDVKEVASEIWKIVRSHGVQTMVVLNNLEPNTTYEIRVAAVNGKGQGDYSKIEIFQTLPVREPSPPSIHGQPSSGKSFKLSITKQDDGGAPILEYIVKYRSKDKEDQWLEKKVQGNKDHIILEHLQWTMGYEVQITAANRLGYSEPTVYEFSMPPKPNIIKD

Molecular target: FGFR1β (IIIc)/Fc chimera
Assay: SPR; BIAcore 2000, 25 °C, 10 mM PBS pH 7.4; about 1000 RU FGFR1β (IIIc)/Fc and 750 RU human IgG1 Fc (control cell) immobilised on a CM4 chip by amine coupling; NCAM2 domains injected at 20-30 μl/min; steady state affinity fit, Kd roughly estimated

| Kd [nM] | Molecule |
| --- | --- |
| 400 | NCAM2 FnIII1-2 domains expressed from P. pastoris (domain or fragment) |
| 4400 | recombinant human NCAM2 FnIII2 domain (from UniProt O15394 592-693) (domain or fragment) |
| 290 | B1 |
| 130 | B2 |
